In patent US20240043489A1, “Cytokine Prodrugs Comprising a Cleavable Linker” (Trutino Biosciences Inc., priority 2020, published 2024):
Entries after “also recorded” stand apart in the source; their conditions may differ. Blank lines part the entries; values can stand above or below the molecule they belong to. Where no end group is shown, it is not given here. The star is where a group is joined. EDANS = O=S(=O)(O)c1cccc2c(NCCN*)cccc12

Legend:
[1] = system: Heparan sulfate proteoglycans; conditions: DTx protein derived; Note 1; cited from earlier work
[2] = system: collagen IV; test: Retention linker peptide binding to collagen IV-coated beads; conditions: peptides 20 uM, 2 hours
Description: (§1) A series of peptides comprising an MMP cleavable site with or without the addition of a tumor retention sequence were synthesized and conjugated to the fluorophore EDANS (5-((2-Aminoethyl)amino)naphthalene-1-sulfonic acid) (custom synthesis, ThermoFisher). […] These peptides were then tested for their ability to bind ECM proteins such as heparin, fibronectin and collagen which are found in abundance in the tumor stroma.
(§2) For fibronectin and collagen binding assays, streptavidin coupled magnetic beads (Mag Sepharose, Cytiva and Dynabeads, ThermoFisher, respectively) were first incubated with biotin-labelled fibronectin (Cytoskeleton) or biotin-labelled collagen IV (Prospec) for 1 Hr with gentle shaking. Following multiple washes, the ECM-coated beads were then incubated with Edans Peptides (20 uM) for 2 hours at room temperature with shaking in neutral or acidic binding buffer. Beads were then washed and resuspended in 100 uL of binding buffer in a black 96-well plate. Peptide binding was quantified by measuring the fluorescence of samples using excitation/emission spectra of EDANS (Ex 340/Em 490).

[3] = system: fibronectin; test: Retention linker peptide binding to fibronectin-coated beads; conditions: peptides 20 uM
Description: as §1, §2

[4] = system: EMT6 tumor; conditions: mouse, in vivo, iv, 8 mg/kg
Description: We assessed the levels of IL-2 fusion proteins present in tumors in vivo by utilizing fluorescently labelled proteins and real-time whole-body imaging. Non-cleavable Construct GGG and Construct DD were conjugated to Dylight 650 probe according to the manufacturer's protocol (Dylight 650 Antibody labeling kit, ThermoFisher). […] BALB/c mice were subcutaneously inoculated with EMT6 breast cancer syngeneic model and when the average tumor volume reached 240 mm^3, animals were randomized into 3 groups based on tumor volumes (n=2 mice per treatment group).
Following a single dose of the labeled IL-2 fusion proteins to tumor-bearing mice, fluorescent images (excitation 640/emission 680 consistent with Dylight 650 probe ex/em spectra) were captured over 96 hrs on an IVIS system (PerkinElmer, IVIS Lumina Series III) and are shown in FIG. 15A. The fluorescence intensity in tumor area was quantified across the groups, average background tumor fluorescence (group 1) was subtracted from group 2 and 3 values at each time-point, and data was normalized to the initial fluorescence intensity of same amount of each labeled protein.

[5] = system: MC38 tumor; test: Intra-tumoral injection in syngeneic MC38 colorectal cancer model; type: in vivo, mice
Description: Tumors and body weights were measured twice a week for the duration of the study. Tumor volumes were calculated using the following equation: (longest diameter*shortest diameter^2)/2.

[6] = target: T1, MMP9 (Mus musculus, UniProt P41245); test: Cleavage of fusion protein by MMP9 protease (SDS-PAGE / Western blot); type: biochemical
T1 construct: purchased R&D Systems
T1 sequence (P41245 108-730): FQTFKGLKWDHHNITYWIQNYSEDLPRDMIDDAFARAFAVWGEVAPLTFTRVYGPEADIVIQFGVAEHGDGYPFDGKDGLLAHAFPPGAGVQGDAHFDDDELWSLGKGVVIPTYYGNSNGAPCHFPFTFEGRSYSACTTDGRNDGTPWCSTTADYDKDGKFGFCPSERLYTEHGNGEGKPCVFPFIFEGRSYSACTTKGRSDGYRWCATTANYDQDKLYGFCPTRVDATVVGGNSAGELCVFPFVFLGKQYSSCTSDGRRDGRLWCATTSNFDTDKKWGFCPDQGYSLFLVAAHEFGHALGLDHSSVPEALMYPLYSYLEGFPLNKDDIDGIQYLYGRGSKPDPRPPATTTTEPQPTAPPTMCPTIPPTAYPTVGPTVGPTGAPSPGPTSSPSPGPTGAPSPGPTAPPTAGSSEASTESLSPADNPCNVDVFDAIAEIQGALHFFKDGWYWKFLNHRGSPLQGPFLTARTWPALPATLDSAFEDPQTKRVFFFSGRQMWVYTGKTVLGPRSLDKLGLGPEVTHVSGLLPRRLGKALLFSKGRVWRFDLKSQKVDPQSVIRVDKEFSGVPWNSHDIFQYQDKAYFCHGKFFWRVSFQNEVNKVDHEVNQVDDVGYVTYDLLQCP
Description: (§3) Recombinant MMP9 and/or MMP2 (R&D Systems) was first activated with p-aminophenylmercuric acetate and this activated protease or equivalent amount of activating solution without the protease was used to digest or mock digest the fusion protein for 1 hr, 2 hr, 4 hr and overnight (18-22 hr) at 37 C. Cleavage assays are set up in TCNB buffer: 50 mM Tris, 10 mM CaCl2), 150 mM NaCl, 0.05% Brij-35 (w/v), pH 7.5. Digested protein was aliquoted and stored at −80° C. prior to testing. Aliquots of digests were subsequently analyzed by SDS-PAGE followed by Western blotting to evaluate the extent of cleavage. Digests were also assessed in functional assays such as CTLL-2 proliferation and HEK-Blue Interleukin reporter assays. As shown in FIGS. 2A-E, essentially complete cleavage by MMP9 protease of the fusion proteins with functional site is seen after overnight incubation. In contrast, proteins containing a scrambled MMP cleavage site are not cut (FIG. 2E).
Untreated and digested fusion proteins were evaluated for cleavage products by Western blot. The following monoclonal antibodies were used: rat anti-mouse IL-2 antibody (JES6-1A12; ThermoFisher), goat anti-mouse IL-2 polyclonal antibody (AF-402-NA; R&D systems), mouse anti-6xHis monoclonal antibody (MA1-21315, ThermoFisher), Anti-mIgG Fc HRP conjugated (ThermoFisher cat #A16084), and Anti-human IL2 antibody (Invitrogen, cat #MA5-17097, mouse IgG1). Detection was performed using either a goat anti-rat HRP-conjugated antibody, Donkey Anti-goat HRP-conjugated antibody or Goat Anti-mouse HIRP conjugated (Jackson Immuno Research, West Grove, PA) and developed using the SuperSignal West Femto Maximum sensitivity detection reagent (ThermoFisher) following the manufacturer's recommendations.

[7] = system: CTLL-2 cells; test: CTLL-2 proliferation assay (MTT); type: cell-based
Description: as §3
IL-2 activity was measured using either CTLL-2 cells (ATCC) or the reporter cell line HEK Blue IL2 (Invivogen, San Diego). In brief, for the CTLL-2 assay a titration of untreated and digested samples is added to 40 000 CTLL-2 cells per well in 100 ul medium in a 96-well plate and incubated at 37C in 5% CO2 for 18-22 hr. At the end of this period, 50ug/well Thiazolyl Blue Tetrazolium Bromide (MTT) (Sigma-Aldrich) was added and the plate was incubated for 5 hr at 37C in 5% CO2. Cells were lysed with 100 µl/well 10% SDS (Sigma) acidified with HCl, incubated at 37C for 4 hr, and absorbance was read at 570 nm. Recombinant human or mouse IL-2 (Peprotech and R&D systems respectively) was used as a positive control. FIGS. 3A-B, 3K-L and 3N-P show examples of untreated and digested fusion proteins evaluated in CTLL-2 proliferation assay.

Molecule: 640 (DVIRDKTKTKIESLK) [Construct 640]
binds to HSGP, affinity [1]: binds to HSGP with low affinity (DTx protein)

Molecule: 639 (NGRKIRMRCRAIDGD) [Construct 639]
binds to HSGP, affinity [1]: binds to HSGP with high affinity (DTx protein)

Molecule: peptide 13: EDANS-conjugated MMP linker peptide with GPLGVRG site; retention motif target pH dependent fibronectin (GGGWSHWGPLGVRG-{EDANS}; also: EDANS fluorophore conjugated at 3' end)
binding to fibronectin at pH6 vs pH 7.5 [3]: enhanced binding at pH6
binding to fibronectin ([3]; 2 hours): able to bind fibronectin

B1: Construct DD: SEQ ID NO 814: m IL2-2x(GHHPH)-MMPscr-2x(G4S)-mIL2Ra(1-215)-mu IgG1 Fc (protein)
chain: APTSSSTSSSTAEAQQQQQQQQQQQQHLEQLLMDLQELLSRMENYRNLKLPRMLTFKFYLPKQATELKDLQCLEDELGPLRHVLDLTQSKSFQLEDAENFISNIRVTVVKLKGSDNTFECQFDDESATVVDFLRRWIAFCQSIISTSPQGHHPHGHHPHGVRLGPGGGGGSGGGGSELCLYDPPEVPNATFKALSYKNGTILNCECKRGFRRLKELVYMRCLGNSWSSNCQCTSNSHDKSRKQVTAQLEHQKEQQTTTDMQKPTQSMHQENLTGHCREPPPWKHEDSKRIYHFVEGQSVHYECIPGYKALQRGPAISICKMKCGKTGWTQPQLTCVDEREHHRFLASEESQGSRNSSPESETSCPITTTDFPQPTETTAMTETFVLTMEYKGCKPCICTVPEVSSVFIFPPKPKDVLTITLTPKVTCVVVDISKDDPEVQFSWFVDDVEVHTAQTQPREEQFNSTFRSVSELPIMHQDWLNGKEFKCRVNSAAFPAPIEKTISKTKGRPKAPQVYTIPPPKEQMAKDKVSLTCMITDFFPEDITVEWQWNGQPAENYKNTQPIMDTDGSYFVYSKLNVQKSNWEAGNTFTCSVLHEGLHNHHTEKSLSHSPGK
tumor-associated fluorescence relative to Construct GGG [4]: roughly 2 fold

B2: Construct A: SEQ ID NO 100: mIL2-2x(SG4)-MMPcs1-2x(G4S)-IL2Ralpha-6His (protein)
chain: APTSSSTSSSTAEAQQQQQQQQQQQQHLEQLLMDLQELLSRMENYRNLKLPRMLTFKFYLPKQATELKDLQCLEDELGPLRHVLDLTQSKSFQLEDAENFISNIRVTVVKLKGSDNTFECQFDDESATVVDFLRRWIAFCQSIISTSPQSGGGGSGGGGGPLGVRGGGGGSGGGGSELCLYDPPEVPNATFKALSYKNGTILNCECKRGFRRLKELVYMRCLGNSWSSNCQCTSNSHDKSRKQVTAQLEHQKEQQTTTDMQKPTQSMHQENLTGHCREPPPWKHEDSKRIYHFVEGQSVHYECIPGYKALQRGPAISICKMKCGKTGWTQPQLTCVDEREHHRFLASEESQGSRNSSPESETSCPITTTDFPQPTETTAMTETFVLTMEYKHHHHHH
anti-tumor activity ([5]; daily intra-tumoral injection, 10 injections, Construct A 70ug/day, r hIL2 5 ug/day): substantially inhibited tumor growth; also recorded: complete elimination of tumor
tumor establishment after re-challenge with MC38 cells ([5]; re-inoculated on Day 40, a month after re-challenge): Tumor growth was rejected; also recorded: no tumor mass was established
time at which cleavage product was detectable ([6]; +MMP-9 digestion, Western blot): 1 h
full-length cytokine prodrug remaining ([6]; overnight +MMP time point): substantially undetectable
greater activity of MMP-9 treated than untreated construct (EC50 comparison) ([7]; CTLL-2 proliferation): 10 fold
CTLL-2 cell proliferation, MMP-9 treated construct ([7]; cleaved by MMP-9): stimulates CTLL-2 cell proliferation in a dose dependent manner

The next lines start with the values.

binding to collagen IV [2]: binds to a lesser extent
Molecule: peptide 15: EDANS-conjugated MMP linker peptide GGGSG...; retention motif target Collagen I (GGGSGLHERHLNNN-{EDANS}; also: EDANS fluorophore conjugated at 3' end)

binding to collagen IV [2]: strongly binds collagen IV
Molecule: peptide 14: EDANS-conjugated MMP linker peptide with GPLGVRG site; retention motif target Collagen IV (KLWVLPKGPLGVRG-{EDANS}; also: EDANS fluorophore conjugated at 3' end)
